The text below walks through data of paper PMC11602160.

Experiment [1] addresses N_(IDR1-core), N variant with IDR1, RBD and DD in which the 67-residue linker is replaced by a 12-residue GSA-linker (SARS-CoV-2).
For experiment [2] the target is unchanged. The experiment can be described thus: ITC; iTC200, 10°C; […]; 20 mM Tris-HCl pH 8.0, 150 mM NaCl, 5% glycerol; […]. (In general: Isothermal titration calorimetry measures the heat released or taken up as one component is titrated into another.)

In general, stoichiometry N refers to the number of molecules, sites or subunits per partner or assembly. Usually Kd stands for a measure of binding affinity in units of concentration.

As for “N_(IDR1-core), N variant with IDR1, RBD and DD in which the 67-residue linker is replaced by a 12-residue GSA-linker (domain or fragment)”, in experiment [1], the stoichiometry N is 2. As for “UPF2S, UPF2 variant comprising the MIF4G3 and the U1BD domains (from UniProt Q9HAU5 761-1227) (domain or fragment)”, the equilibrium dissociation constant (Kd) in experiment [2] stood at 2900 nM.
